# Values joined by “and” are separate entries in the source; they are usually repeats but may differ in a detail not shown here. Identical values can stand only once.
# What was measured:
# [1] = molecular target: ZE-fused ferritin, C-terminal fusion (HF-ZE) cage (human); test: TEM + native gel or EMSA
# [2] = molecular target: ZE-fused ferritin, N-terminal fusion (ZE-HF) cage (human); test: TEM
# [3] = molecular target: ZE-mi3 cage (His tag and ZE fused to the N-terminus of the designed protein cage mi3); test: TEM
# [4] = molecular target: ZE-mi3 cage (His tag and ZE fused to the N-terminus of the designed protein cage mi3); test: native gel or EMSA
# [5] = molecular target: ZE-fused ferritin, N-terminal fusion (ZE-HF) cage (human); test: native gel or EMSA
# [6] = molecular target: C-terminal ZR-fused ferritin (HF-ZR) cage, 15 residue linker (human); test: negative-stain TEM
substance,measurement,setting,value
"C-terminal ZR-fused ferritin (HF-ZR) cage, 15 residue linker (designed binder)",stoichiometry N (HF-ZR cages per HF-ZE cage),[1],1 and 3
same,stoichiometry N (HF-ZR cages per ZE-HF cage),[2],4 and 6
same,stoichiometry N (HF-ZR cages per mi3 cage),[3],12
same,stoichiometry N (HF-ZR cages per ZE-mi3 cage),[4],12
GFP-ZR (ZR fusion to the GFP C-terminus) (designed binder),stoichiometry N (GFPs per ferritin cage),[5],20 to 24
ZE-GFP (ZE-fused GFP) (designed binder),stoichiometry N (GFPs observed per cage),[6],1 and 3

# From PMC9891371
